Assay results published in US20150152192A1 (SAMSUNG ELECTRONICS, published 2015).

T1: Ang2 with I434 mutated with alanine, tagged with FLAG (human, UniProt O15123 19-496, limits assumed)
T1 sequence: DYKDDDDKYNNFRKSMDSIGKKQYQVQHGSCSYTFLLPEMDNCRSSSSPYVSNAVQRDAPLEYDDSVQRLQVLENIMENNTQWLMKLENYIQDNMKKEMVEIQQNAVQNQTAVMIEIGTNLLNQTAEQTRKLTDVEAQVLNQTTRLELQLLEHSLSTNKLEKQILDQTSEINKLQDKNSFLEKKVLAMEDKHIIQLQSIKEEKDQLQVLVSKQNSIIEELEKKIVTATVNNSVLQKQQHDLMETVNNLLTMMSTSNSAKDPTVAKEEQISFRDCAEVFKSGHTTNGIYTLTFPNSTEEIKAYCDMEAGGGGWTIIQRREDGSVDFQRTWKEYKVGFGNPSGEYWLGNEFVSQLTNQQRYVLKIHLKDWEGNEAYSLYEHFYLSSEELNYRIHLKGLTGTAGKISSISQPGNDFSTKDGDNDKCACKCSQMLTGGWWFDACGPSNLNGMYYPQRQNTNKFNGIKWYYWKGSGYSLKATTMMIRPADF

T2: Ang2 with N467 mutated with alanine, tagged with FLAG (human, UniProt O15123 19-496, limits assumed)
T2 sequence: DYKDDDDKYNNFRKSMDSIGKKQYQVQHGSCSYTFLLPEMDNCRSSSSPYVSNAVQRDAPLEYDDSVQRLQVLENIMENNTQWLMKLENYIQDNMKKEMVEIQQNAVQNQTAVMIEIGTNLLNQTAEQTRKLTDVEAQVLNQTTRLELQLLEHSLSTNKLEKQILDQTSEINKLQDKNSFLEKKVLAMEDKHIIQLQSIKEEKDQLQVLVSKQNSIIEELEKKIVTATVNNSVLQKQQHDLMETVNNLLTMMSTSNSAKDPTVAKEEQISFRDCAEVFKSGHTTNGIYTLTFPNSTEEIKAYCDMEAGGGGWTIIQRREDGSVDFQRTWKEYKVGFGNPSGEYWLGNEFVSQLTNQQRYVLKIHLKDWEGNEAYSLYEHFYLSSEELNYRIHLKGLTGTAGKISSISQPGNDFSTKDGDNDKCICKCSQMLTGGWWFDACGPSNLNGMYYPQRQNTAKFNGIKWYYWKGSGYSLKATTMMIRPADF

T3: FLAG-Tagged hAng2 (human, UniProt O15123 19-496, limits assumed)
T3 construct: also called FLAG-Ang2; non-mutated Ang2
T3 sequence: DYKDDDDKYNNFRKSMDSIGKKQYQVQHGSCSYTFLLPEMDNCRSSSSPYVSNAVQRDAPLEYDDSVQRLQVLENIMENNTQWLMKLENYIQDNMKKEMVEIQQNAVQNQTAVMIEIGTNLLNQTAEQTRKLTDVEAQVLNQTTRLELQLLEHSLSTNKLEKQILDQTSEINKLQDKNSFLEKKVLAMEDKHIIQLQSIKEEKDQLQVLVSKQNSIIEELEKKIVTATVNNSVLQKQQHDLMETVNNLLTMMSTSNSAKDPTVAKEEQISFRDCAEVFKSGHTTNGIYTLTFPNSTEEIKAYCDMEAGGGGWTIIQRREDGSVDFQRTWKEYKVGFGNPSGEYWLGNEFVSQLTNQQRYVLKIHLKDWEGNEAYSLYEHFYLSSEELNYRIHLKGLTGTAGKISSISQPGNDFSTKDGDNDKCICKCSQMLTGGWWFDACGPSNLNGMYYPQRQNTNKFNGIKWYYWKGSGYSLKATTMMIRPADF


Assays:
[1] = molecular target: T1, Ang2 with I434 mutated with alanine, …; test: ELISA, scFv coated, 250 ng FLAG-tagged Ang2 mutant, anti-FLAG-HRP
Procedure: (§1) A 96-well MaxiSorp™ flat-bottom plate (Nunc) was coated with 50 μl of the anti-Ang2 scFv selected above. After that, the plate was washed five times with 0.05% (v/v) Tween-20-containing PBS and then blocked with 1% (v/v) BSA-containing PBS at a room temperature for 2 hours. […] Thereafter, the plate was washed five times with 0.05% Tween-20-containing PBS and then, an HRP-conjugated anti-FLAG antibody (SIGMA) diluted in 1% (v/v) BSA-containing PBS at 1:5,000 ratio (v/v) was added in the amount of 50 μl to each well to react at a room temperature for 1 hour, followed by washing five times with 0.1% (v/v) Tween-20-containing PBS.
(§2) Finally, 100 μl of TMB substrate (cell signal) was added to each well of the plate to induce color development and then, the reaction was ceased by the addition of 50 μl of 5N H₂SO₄ solution and OD450 values were measured on a plate reader (Molecular Devices).

[2] = molecular target: T2, Ang2 with N467 mutated with alanine, …; test: as above
Procedure: as §1, §2

FLAG-Tagged hAng2 = molecular target: T3, FLAG-Tagged hAng2; test: competitive ELISA: hTie2-Fc coated, 400 ng/ml FLAG-hAng2 plus scFv, anti-FLAG-HRP
Procedure: To verify molecular interaction of the bound assemblies, a competitive ELISA was performed. A 96-well MaxiSorp™ flat-bottom plate (Nunc) was coated with […] of hTie2-Fc (R&D Systems), which is a protein with the Fc of human IgG1 bound thereto. After that, the plate was washed five times with 0.05% (v/v) Tween-20-containing PBS (Phosphate Buffer Saline) and then blocked with 1% (v/v) BSA (Bovine serum albumin; Sigma)-containing PBS at a room temperature for 2 hours.
Thereafter, the plate was washed five times with 0.05% Tween-20-containing PBS and then, an HRP-conjugated anti-FLAG antibody (SIGMA) diluted in 1% (v/v) BSA-containing PBS at 1:5,000 ratio (v/v) was added in the amount of 100 μl (microliter) to each well to react at a room temperature for 1 hour, followed by washing five times with 0.1% (v/v) Tween-20-containing PBS. Finally, 100 μl (microliter) of TMB substrate (cell signal) was added to each well of the plate to induce color development at a room temperature for 3 min. Then, the reaction was ceased by the addition of 50 μl of 5N H₂SO₄ solution and OD450 values were measured on a plate reader (Molecular Devices).

[3] = molecular target: Ang2 with A449 mutated with alanine, tagged with FLAG (human) (UniProt O15123); test: ELISA, scFv coated, 250 ng FLAG-tagged Ang2 mutant, anti-FLAG-HRP

Binder	Relative binding (%) with Mutant Ang2 compared to the binding with native Ang2 [1] [%]	Relative binding (%) with Mutant Ang2 compared to the binding with native Ang2 [2] [%]	IC50 (FLAG-Tagged hAng2) [µM]	Relative binding (%) with Mutant Ang2 compared to the binding with native Ang2 [3] [%]
SAIT-ANG-2-AB-2-E6 (scFv form) (scFv, V domains shown, scFv from a phage display library, partly purified from E. coli periplasm on Ni-NTA and detected with anti-HA) VH: EVQLLESGGGLVQTGGSLRLSCAASGFTFSDYAMSWVRQAPGKGLEWVSAIYPDSGNKYYADSVKGRFTISRDNSKNTLYLQMNSLRAEDTAVYYCARHSSDPKVKSGYYDDGMDVWGQGTLVAVSS VL: QSVLTQPPSASGTPGQRVTISCSGSSSNIGNNAVNWYQQLPGTAPKLLIYADSNRPSGVPDRFSGSKSGTSASLAISGLRSEDEADYYCGSWDYSLSGYVFGGGTKLTVLG	5.3	72.1	0.0189	3.3
SAIT-ANG-2-AB-4-F5 (scFv form) (scFv, V domains shown, scFv from a phage display library) VH: EVQLLESGGGLVQPGGSLRLSCAASGFTFSDYDMSWVRQAPGKGLEWVSSISHGDSNKYYADSVKGRFTISRDNSKNTLYLQMNSLRAEDTAVYYCAKSSGIQESPPTYYYYGMDVWGQGTLVTVSS VL: QSVLTQPPSASGTPGQRVTISCSGSSSNIGSNAVNWYQQLPGTAPKLLIYADSNRPSGVPDRFSGSKSGTSASLAISGLRSEDEADYYCGSWDYSLSGYVFGGGTKLTVLG	68.6	11.3	0.01	14
SAIT-ANG-2-AB-4-F11 (scFv form) (scFv, V domains shown, scFv from a phage display library) VH: EVQLLESGGGLVQTGGSLRLSCAASGFTFSDYAMSWVRQAPGKGLEWVSSIYPDDGNTYYADSVKGRFTISRDNSKNTLYLQMNSLRAEDTAVYYCAKHPVRLNLHPMYYYYGMDVWGQGTLVTVSS VL: QSVLTQPPSASGTPGQRVTISCTGSSSNIGNNAVSWYQQLPGTAPKLLIYSDSQRPSGVPDRFSGSKSGTSASLAISGLRSEDEADYYCATWDYSLSAYVFGGGTKLTVLG	69	92	0.0066	16.7
SAIT-ANG-2-AB-4-C11 (scFv form) (scFv, V domains shown, scFv from a phage display library) VH: EVQLLESGGGLVQPGGSLRLSCAASGFTFSDYAMSWVRQAPGKGLEWVSSIYPDDGNTYYADSVKGRFTISRDNSKNTLYLQMNSLRAEDTAVYYCARHTSHHTSIDGYYYYGMDGWGQGTLVTVSS VL: QSVLTQPPSASGTPGQRVTISCTGSSSNIGNNDVSWYQQLPGTAPKLLIYSDSKRPSGVPDRFSGSKSGTSASLAISGLRSEDEADYYCGSWDYSLSGYVFGGGTKLTVLG	7.2	81.7	0.0065	4.8
SAIT-ANG-2-AB-8-A5 (scFv form) (scFv, V domains shown, scFv from a phage display library) VH: EVQLLESGGGLVQPGGSLRLSCAASGFTFSDYYMSWVRQAPGKGLEWVSGIYPSGGSTYYADSVKGRFTISRDNSKNTLYLQMNSLRAEDTAVYYCARDPSTLTYAGFDYWGQGTLVTVSS VL: QSVLTQPPSASGTPGQRVTISCSGSSSNIGNNYVTWYQQLPGTAPKLLIYADSHRPSGVPDRFSGSKSGTSASLAISGLRSEDEADYYCATWDYSLSGYVFGGGTKLTVLG	4	90.7	0.0363	–
SAIT-ANG-2-AB-7-C9 (scFv form) (scFv, V domains shown, scFv from a phage display library) VH: EVQLLESGGGLVQPGGSLRLSCAASGFTFSNYAMSWVRQAPGKGLEWVSAISSGGGNIYYADSVKGRFTISRDNSKNTLYLQMNSLRAEDTAVYYCAKSGIQPSPPSMSSAYAMDVWGQGTLVTVSS VL: QSVLTQPPSASGTPGQRVTISCSGSSSNIGNNDVYWYQQLPGTAPKLLIYANSHRPSGVPDRFSGSKSGTSASLAISGLRSEDEADYYCGTWDYSLSGYVFGGGTKLTVLG	8.7	86.6	0.0397	14.5
SAIT-ANG-2-AB-3-D3 (scFv form) (scFv, V domains shown, scFv from a phage display library) VH: EVQLLESGGGLVQPGGSLRLSCAASGFTFSDYDMSWVRQAPGKGLEWVSGISSDDGNTYYADSVKGRFTISRDNSKNTLYLQMNSLRAEDTAVYYCARPTIDKYTLRGYYSYGMDVWGQGTLVTVSS VL: QSVLTQPPSASGTPGQRVTISCTGSSSNIGSNYVSWYQQLPGTAPKLLIYSDNKRPSGVPDRFSGSKSGTSASLAISGLRSEDEADYYCGTWDDSLNGYVFGGGTKLTVLG	93.4	90.9	0.0099	101
